B1: HA-FoxA1 (HA-tagged rat FoxA1 in pcDNA3) (other, UniProt P23512 1-466, looked up)
chain: MLGTVKMEGHESNDWNSYYADTQEAYSSVPVSNMNSGLGSMNSMNTYMTMNTMTTSGNMTPASFNMSYANPGLGAGLSPGAVAGMPGGSAGAMNSMTAAGVTAMGAALSPGGMGSMGAQPAASMNGLGPYAAAMNPCMSPMAYAPSNLGRSRAGGGGDAKTFKRSYPHAKPPYSYISLITMAIQQAPSKMLTLSEIYQWIMDLFPYYRQNQQRWQNSIRHSLSFNACFVKVARSPDKPGKGSYWTLHPDSGNMFENGCYLRRQKRFKCEKQPGAGGGSGGGGSKGVPENRKDPSGPVNPSAESPIHRGVHGKASQLEGAPAPGPAASPQTLDHSGATATGGGSELKSPASSSAPPISSGPGGWICTPLSPTWLAPHESQLHLKGAPHYSFNHPFSINNLMSSSEQQHKLDFKAYEQALQYSPYGATLPASLPLGGASVATRSPIEPSALEPAYYQGVYSRPVLNTS
notes: not shown: HA tag

Legend:
[1] = target: Flag-HIF-1α (mouse HIF-1α in pCVM-Flag vector, expressed in transfected cells) (mouse) (UniProt Q61221); experiment: cell-based or functional assay
[2] = target: T1, Flag-HIF-1α (mouse HIF-1α in pCVM-Flag vector, expressed in transfected cells) (mouse, UniProt Q61221-2 1-822, limits assumed); experiment: co-expression in 293T cells, immunoprecipitation of Flag-HIF-1α with M2 beads, immunoblot
T1 construct: not shown: Flag tag
Protocol: Immunoprecipitation and Western blotting. For immunoprecipitation, cells were harvested in lysis buffer containing 50 mM Tris-HCl pH7.5, 150 mM NaCl, 0.5% NP40, 1 mM EDTA, 1 mM sodium orthovanadate, 1mM PMSF, 10 μg/ml aprotinin, 10 μg/ml leupeptine and 10 μg/ml pepstatin A. To immunoprecipitate Flag-tagged proteins, lysates were incubated with M2 beads (Sigma) overnight, the beads were washed 3 times, and precipitated proteins were eluted with 1 mg/ml of flag peptide. To immunoprecipitate endogenous proteins, cells lysates were incubated with 3 μg of primary antibodies overnight, and followed by incubation with Protein G beads for 1 h. After washing 3 times, the precipitated proteins were eluted with SDS loading buffer. To extract whole cell lysate, cells were harvested using RIPA buffer (50 mM Tris-HCl (pH7.5), 150 mM NaCl, 1% Triton X-100, 0.1% SDS, 0.1% Na-deoxycholate, 1 mM EDTA, 1 mM sodium orthovanadate, 1 mM PMSF, 10 μg/ml aprotinin, and 10 μg/ml leupeptine). Cell lysates were subjected to SDS-PAGE and proteins transferred onto a nitrocellulose membrane (Osmonics Inc.). The membrane was probed with primary antibodies followed by a secondary antibody conjugated with fluorescent dye and detected by the Odyssey detecting system ([…]).

T1 sequence (Q61221 other isoform, or with tags, fused parts or gaps limits assumed): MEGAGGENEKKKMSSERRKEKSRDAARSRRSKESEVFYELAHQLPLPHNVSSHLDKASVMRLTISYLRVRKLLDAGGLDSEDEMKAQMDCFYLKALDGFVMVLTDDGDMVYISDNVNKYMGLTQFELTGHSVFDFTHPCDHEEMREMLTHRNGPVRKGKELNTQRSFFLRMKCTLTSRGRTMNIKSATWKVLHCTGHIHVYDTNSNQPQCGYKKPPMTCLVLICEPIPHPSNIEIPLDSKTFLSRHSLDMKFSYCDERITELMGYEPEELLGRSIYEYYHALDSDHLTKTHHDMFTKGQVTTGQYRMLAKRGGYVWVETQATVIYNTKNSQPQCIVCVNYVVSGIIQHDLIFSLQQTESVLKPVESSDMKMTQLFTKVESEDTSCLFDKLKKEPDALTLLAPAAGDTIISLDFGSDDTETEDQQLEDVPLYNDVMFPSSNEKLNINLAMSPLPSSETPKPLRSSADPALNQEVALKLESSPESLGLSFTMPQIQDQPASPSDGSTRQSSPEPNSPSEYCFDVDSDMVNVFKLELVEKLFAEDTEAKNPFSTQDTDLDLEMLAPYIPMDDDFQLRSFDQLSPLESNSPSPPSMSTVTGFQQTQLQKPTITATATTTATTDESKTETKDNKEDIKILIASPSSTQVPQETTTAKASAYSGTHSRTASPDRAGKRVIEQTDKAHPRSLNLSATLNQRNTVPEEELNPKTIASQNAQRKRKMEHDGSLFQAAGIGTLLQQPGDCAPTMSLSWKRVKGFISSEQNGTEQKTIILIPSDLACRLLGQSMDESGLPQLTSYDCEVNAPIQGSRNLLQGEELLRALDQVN
Sequence of Flag-HIF-1α (mouse HIF-1α in pCVM-Flag vector, expressed in transfected cells) (mouse) (Q61221 other isoform, or with tags, fused parts or gaps limits assumed): as above

| Molecule | HRE-Luc luciferase activity in TRAMP-C cells [1] | binding result [2] |
| --- | --- | --- |
| exogenous FoxA2 expressed in TRAMP-C cells (luciferase assay of FIG. 3A) | 6 fold | – |
| B1 | – | no binding |

Source: US20110301095A1 (SANFORD BURNHAM MEDICAL RESEARCH INSTITUTE CALIFORNIA, published 2011)
